Test results taken from article PMC4770077.

What was measured:
Assay in all cases: BLI; biotinylated trimeric gp140 immobilised on streptavidin biosensors; Fabs 1-32 uM in solution; 30 C, 1,000 r.p.m.; kinetic buffer (1X PBS, 0.01% BSA, 0.02% Tween 20, 0.005% NaN3); association 4 min, dissociation 8 min; 1:1 binding model; mean of curves with R2 >= 0.95
[1] = molecular target: 426c.TM4ΔV1-3 soluble trimeric gp140 (426c S278R N460D N463D G471S ΔV1 V2 V3) (HIV-1 (clade C, 426c))
[2] = molecular target: 426c.TM5ΔV1-3 soluble trimeric gp140 (426c N276D S278R N460D N463D G471S ΔV1 V2 V3) (HIV-1 (clade C, 426c))
[3] = molecular target: 426c.TM2 soluble trimeric gp140 (426c S278A N460D N463D) (HIV-1 (clade C, 426c))
[4] = molecular target: 426c.TM3 soluble trimeric gp140 (426c S278R N460D N463D) (HIV-1 (clade C, 426c))
[5] = molecular target: 426c.TM4 soluble trimeric gp140 (426c S278R N460D N463D G471S) (HIV-1 (clade C, 426c))
[6] = molecular target: 426c.TM5 soluble trimeric gp140 (426c N276D S278R N460D N463D G471S) (HIV-1 (clade C, 426c))
[7] = molecular target: 426c.TM1 soluble trimeric gp140 (426c N276D N460D N463D) (HIV-1 (clade C, 426c))
[8] = molecular target: 426c.TM1ΔV1-3 soluble trimeric gp140 (426c N276D N460D N463D ΔV1 V2 V3) (HIV-1 (clade C, 426c))

Row | Substance | Ka [1] | koff [1] | kon [1] | Ka [2] | koff [2] | kon [2] | Ka [3] | koff [3] | kon [3] | Ka [4] | koff [4] | kon [4] | Ka [5] | koff [5] | kon [5] | Ka [6] | koff [6] | kon [6] | Ka [7] | koff [7] | further results
1 | germline 3BNC60 Fab | 3490 M⁻¹ | 0.398 s⁻¹ | 1410 M⁻¹ s⁻¹ | 2180 M⁻¹ | 0.477 s⁻¹ | 1040 M⁻¹ s⁻¹ |  |  |  |  |  |  |  |  |  |  |  |  |  |  | 
2 | germline 12A21 Fab | 311000 M⁻¹ | 0.0305 s⁻¹ | 9470 M⁻¹ s⁻¹ | 30800 M⁻¹ | 0.0515 s⁻¹ | 1590 M⁻¹ s⁻¹ | 201000 M⁻¹ | 0.274 s⁻¹ | 55200 M⁻¹ s⁻¹ | 174000 M⁻¹ | 0.279 s⁻¹ | 48500 M⁻¹ s⁻¹ | 334000 M⁻¹ | 0.168 s⁻¹ | 56200 M⁻¹ s⁻¹ | 38500 M⁻¹ | 0.403 s⁻¹ | 15500 M⁻¹ s⁻¹ |  |  | 
3 | germline VRC01 Fab | 1.47e+06 M⁻¹ | 0.00426 s⁻¹ | 6250 M⁻¹ s⁻¹ | 1.06e+07 M⁻¹ | 0.00065 s⁻¹ | 6860 M⁻¹ s⁻¹ | 628000 M⁻¹ | 0.0579 s⁻¹ | 36300 M⁻¹ s⁻¹ | 562000 M⁻¹ | 0.064 s⁻¹ | 36000 M⁻¹ s⁻¹ | 1.08e+06 M⁻¹ | 0.0264 s⁻¹ | 28700 M⁻¹ s⁻¹ | 1.14e+07 M⁻¹ | 0.00225 s⁻¹ | 25600 M⁻¹ s⁻¹ | 1.31e+06 M⁻¹ | 0.0113 s⁻¹ | kon [7]: 14800 M⁻¹ s⁻¹; Ka [8]: 3.09e+06 M⁻¹; koff [8]: 0.00157 s⁻¹; kon [8]: 4840 M⁻¹ s⁻¹
4 | germline VRC-CH31 Fab |  |  |  | 8950 M⁻¹ | 0.24 s⁻¹ | 2400 M⁻¹ s⁻¹ |  |  |  |  |  |  |  |  |  |  |  |  |  |  | 
5 | germline VRC-PG19 Fab | 8.9e+06 M⁻¹ | 0.0027 s⁻¹ | 24100 M⁻¹ s⁻¹ | 8.93e+06 M⁻¹ | 0.00216 s⁻¹ | 19300 M⁻¹ s⁻¹ | 416000 M⁻¹ | 0.172 s⁻¹ | 71500 M⁻¹ s⁻¹ | 2.24e+06 M⁻¹ | 0.0442 s⁻¹ | 98900 M⁻¹ s⁻¹ | 5.45e+06 M⁻¹ | 0.018 s⁻¹ | 98000 M⁻¹ s⁻¹ | 5.22e+06 M⁻¹ | 0.016 s⁻¹ | 83800 M⁻¹ s⁻¹ | 287000 M⁻¹ | 0.14 s⁻¹ | kon [7]: 40000 M⁻¹ s⁻¹; Ka [8]: 353000 M⁻¹; koff [8]: 0.0315 s⁻¹; kon [8]: 11100 M⁻¹ s⁻¹
6 | germline VRC-PG20 Fab | 3.84e+07 M⁻¹ | 0.000511 s⁻¹ | 24500 M⁻¹ s⁻¹ | 2.45e+08 M⁻¹ | 0.000149 s⁻¹ | 41200 M⁻¹ s⁻¹ | 3.88e+06 M⁻¹ | 0.0129 s⁻¹ | 50900 M⁻¹ s⁻¹ | 1.2e+07 M⁻¹ | 0.00487 s⁻¹ | 60500 M⁻¹ s⁻¹ | 2.28e+07 M⁻¹ | 0.00257 s⁻¹ | 61100 M⁻¹ s⁻¹ | 1.78e+08 M⁻¹ | 0.000553 s⁻¹ | 112000 M⁻¹ s⁻¹ | 1.4e+07 M⁻¹ | 0.00343 s⁻¹ | kon [7]: 49700 M⁻¹ s⁻¹; Ka [8]: 1.24e+07 M⁻¹; koff [8]: 0.00104 s⁻¹; kon [8]: 13500 M⁻¹ s⁻¹
